Columns and labels:
[1] = target: conjoined PfA (cPfA): N-PfA and C-PfA halves of P. furiosus L-asparaginase without the 19-residue linker (Pyrococcus furiosus) (UniProt Q8TZE8); experiment: SAXS; protein at 6 mg/mL in a thermostated quartz capillary, 40 °C; association state from I0 of the Guinier analysis against lysozyme
[2] = target: conjoined PfA (cPfA): N-PfA and C-PfA halves of P. furiosus L-asparaginase without the 19-residue linker (Pyrococcus furiosus) (UniProt Q8TZE8); experiment: SAXS; protein at 6 mg/mL in a thermostated quartz capillary, 30 °C; association state from I0 of the Guinier analysis against lysozyme
[3] = target: conjoined PfA (cPfA): N-PfA and C-PfA halves of P. furiosus L-asparaginase without the 19-residue linker (Pyrococcus furiosus) (UniProt Q8TZE8); experiment: SAXS; protein at 6 mg/mL in a thermostated quartz capillary, 70 °C; association state from I0 of the Guinier analysis against lysozyme
[4] = target: conjoined PfA (cPfA): N-PfA and C-PfA halves of P. furiosus L-asparaginase without the 19-residue linker (Pyrococcus furiosus) (UniProt Q8TZE8); experiment: SAXS; protein at 6 mg/mL in a thermostated quartz capillary, 25 °C; association state from I0 of the Guinier analysis against lysozyme
[5] = target: conjoined PfA (cPfA): N-PfA and C-PfA halves of P. furiosus L-asparaginase without the 19-residue linker (Pyrococcus furiosus) (UniProt Q8TZE8); experiment: SAXS; protein at 6 mg/mL in a thermostated quartz capillary, 60 °C; association state from I0 of the Guinier analysis against lysozyme
[6] = target: conjoined PfA (cPfA): N-PfA and C-PfA halves of P. furiosus L-asparaginase without the 19-residue linker (Pyrococcus furiosus) (UniProt Q8TZE8); experiment: SAXS; protein at 6 mg/mL in a thermostated quartz capillary, 80 °C; association state from I0 of the Guinier analysis against lysozyme
[7] = target: conjoined PfA (cPfA): N-PfA and C-PfA halves of P. furiosus L-asparaginase without the 19-residue linker (Pyrococcus furiosus) (UniProt Q8TZE8); experiment: SAXS; protein at 6 mg/mL in a thermostated quartz capillary, 50 °C; association state from I0 of the Guinier analysis against lysozyme
[8] = target: defunct cPfA (dcPfA): cPfA truncated beyond D178 of the N-terminal domain (Pyrococcus furiosus) (UniProt Q8TZE8)
[9] = target: the molecule itself; experiment: SAXS; protein at 6 mg/mL in a thermostated quartz capillary, 25 °C; association state from I0 of the Guinier analysis against lysozyme
[10] = target: the molecule itself; experiment: SAXS; protein at 6 mg/mL in a thermostated quartz capillary, 80 °C; association state from I0 of the Guinier analysis against lysozyme
[11] = target: the molecule itself; experiment: SAXS; protein at 6 mg/mL in a thermostated quartz capillary, 40 °C; association state from I0 of the Guinier analysis against lysozyme
[12] = target: the molecule itself; experiment: SAXS; protein at 6 mg/mL in a thermostated quartz capillary, 30 °C; association state from I0 of the Guinier analysis against lysozyme
[13] = target: the molecule itself; experiment: SAXS; protein at 6 mg/mL in a thermostated quartz capillary, 50 °C; association state from I0 of the Guinier analysis against lysozyme
[14] = target: the molecule itself; experiment: crystal structure; cPfA crystallised at 37 °C, 2.36 Å, PDB 5CBP; contacts between symmetry mates

Molecule: conjoined PfA (cPfA): N-PfA and C-PfA halves of P. furiosus L-asparaginase without the 19-residue linker (from UniProt Q8TZE8 1-182; Q8TZE8 1-182) (complex)
- stoichiometry N [1]: 2
- stoichiometry N [2]: 2
- stoichiometry N [3]: 8
- stoichiometry N [4]: 2
- stoichiometry N [5]: 4
- stoichiometry N [6]: 12
- stoichiometry N [7]: 2

Molecule: defunct cPfA (dcPfA): cPfA truncated beyond D178 of the N-terminal domain (from UniProt Q8TZE8 1-178; Q8TZE8 1-178) (complex)
- loss in specific activity of dcPfA relative to cPfA, 45 °C [8]: 38%
- loss in specific activity of dcPfA relative to cPfA, 60 °C [8]: 60%
- loss in specific activity of dcPfA relative to cPfA, 70 °C [8]: 80%
- loss in specific activity of dcPfA relative to cPfA, 80 °C [8]: 90%

Molecule: LVVN [L-V-V-N peptide (terminal short beta-strand of the N-terminal domain of PfA, Leu179-Asn182)]
- specific activity of dcPfA pre-incubated with LVVN peptide (different molar ratios, highest effective 500 µM) against dcPfA alone, 37 °C [8]: 1.66 fold
- specific activity of dcPfA pre-incubated with LVVN peptide (different molar ratios, highest effective 500 µM) against dcPfA alone, 45 °C [8]: 1.85 fold
- specific activity of dcPfA pre-incubated with LVVN peptide (different molar ratios, highest effective 500 µM) against dcPfA alone, 60 °C [8]: 2.36 fold

B1: L-asparaginase from Pyrococcus furiosus, full-length wild type (PfA) (enzyme, UniProt Q8TZE8 1-326, looked up)
chain: MKILLIGMGGTIASVKGENGYEASLSVKEVLDIAGIKDCEDCDFLDLKNVDSTLIQPEDWVDLAETLYKNVKKYDGIIVTHGTDTLAYTSSMISFMLRNPPIPIVFTGSMIPATEENSDAPLNLQTAIKFATSGIRGVYVAFNGKVMLGVRTSKVRTMSRDAFESINYPIIAELRGEDLVVNFIPKFNNGEVTLDLRHDPKVLVIKLIPGLSGDIFRAAVELGYRGIVIEGYGAGGIPYRGSDLLQTIEELSKEIPIVMTTQAMYDGVDLTRYKVGRLALRAGVIPAGDMTKEATVTKLMWILGHTNNVEEIKVLMRKNLVGELRD
notes: L-asparaginase of Pyrococcus furiosus, full length, with N-terminal domain, 19-residue linker and C-terminal domain; One protomer; the SAXS rows give the size of the oligomer it forms
- stoichiometry N [9]: 2
- stoichiometry N [10]: 4
- stoichiometry N [11]: 2
- stoichiometry N [12]: 2
- stoichiometry N [13]: 2

B2: N-PfA, N-terminal domain chain of conjoined PfA (domain or fragment, Pyrococcus furiosus, UniProt Q8TZE8 1-182, looked up)
chain: MKILLIGMGGTIASVKGENGYEASLSVKEVLDIAGIKDCEDCDFLDLKNVDSTLIQPEDWVDLAETLYKNVKKYDGIIVTHGTDTLAYTSSMISFMLRNPPIPIVFTGSMIPATEENSDAPLNLQTAIKFATSGIRGVYVAFNGKVMLGVRTSKVRTMSRDAFESINYPIIAELRGEDLVVN
notes: N-PfA, the N-terminal half of P. furiosus L-asparaginase; ends at residue 182
- binding result [14]: binds
